Assay results published in patent publication US20120322150.

Key:
GST-BIN2 = biological target: T1, GST-BIN2 (UniProt Q39011)
T1 sequence: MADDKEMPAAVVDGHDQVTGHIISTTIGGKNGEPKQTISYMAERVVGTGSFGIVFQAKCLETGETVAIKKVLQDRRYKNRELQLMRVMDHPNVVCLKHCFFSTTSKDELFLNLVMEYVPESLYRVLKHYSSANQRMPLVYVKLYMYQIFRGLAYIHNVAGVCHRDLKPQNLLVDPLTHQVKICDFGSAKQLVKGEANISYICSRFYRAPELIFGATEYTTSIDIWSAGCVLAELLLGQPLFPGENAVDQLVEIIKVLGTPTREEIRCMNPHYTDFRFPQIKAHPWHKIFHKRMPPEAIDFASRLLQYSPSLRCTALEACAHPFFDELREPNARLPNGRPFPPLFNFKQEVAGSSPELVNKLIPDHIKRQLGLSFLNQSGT

GST-hsGSK3β = GST-hsGSK3β (UniProt P49841)
Sequence of GST-hsGSK3β (P49841 whole entry, looked up): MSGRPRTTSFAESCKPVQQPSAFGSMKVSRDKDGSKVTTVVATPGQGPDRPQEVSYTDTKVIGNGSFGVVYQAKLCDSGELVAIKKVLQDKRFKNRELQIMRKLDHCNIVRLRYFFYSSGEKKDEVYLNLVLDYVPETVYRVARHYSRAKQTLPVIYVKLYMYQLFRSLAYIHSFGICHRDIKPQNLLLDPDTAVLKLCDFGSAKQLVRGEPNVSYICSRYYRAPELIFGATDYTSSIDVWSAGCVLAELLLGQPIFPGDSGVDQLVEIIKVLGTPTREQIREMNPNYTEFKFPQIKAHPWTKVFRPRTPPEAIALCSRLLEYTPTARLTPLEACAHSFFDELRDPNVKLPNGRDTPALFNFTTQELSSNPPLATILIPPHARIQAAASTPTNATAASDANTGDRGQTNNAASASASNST

Substance	dephosphorylation of BIN2 tyrosine200 (GST-BIN2)	phosphorylation status of tyrosine 216 of hsGSK3β (immunoblot with anti-phospho-tyrosine 216 antibody) (GST-hsGSK3β)
PP1 purified from E. coli	The presence of PP1 increased dephosphorylation of BIN2 tyrosine200	–
MBP-hsPPP1cc	–	human protein phosphatase 1 gamma (PP1γ) dephosphorylates tyrosine 216 of human GSK3 beta in vitro
